Earlier results as cited in publication PMC5467299.

Assays:
[1] = target: Plasminogen (Homo sapiens) (UniProt P00747)
tPA (Homo sapiens) = tPA (Homo sapiens) (UniProt P00750)
Chain of UniProt P00750 (P00750 36-562): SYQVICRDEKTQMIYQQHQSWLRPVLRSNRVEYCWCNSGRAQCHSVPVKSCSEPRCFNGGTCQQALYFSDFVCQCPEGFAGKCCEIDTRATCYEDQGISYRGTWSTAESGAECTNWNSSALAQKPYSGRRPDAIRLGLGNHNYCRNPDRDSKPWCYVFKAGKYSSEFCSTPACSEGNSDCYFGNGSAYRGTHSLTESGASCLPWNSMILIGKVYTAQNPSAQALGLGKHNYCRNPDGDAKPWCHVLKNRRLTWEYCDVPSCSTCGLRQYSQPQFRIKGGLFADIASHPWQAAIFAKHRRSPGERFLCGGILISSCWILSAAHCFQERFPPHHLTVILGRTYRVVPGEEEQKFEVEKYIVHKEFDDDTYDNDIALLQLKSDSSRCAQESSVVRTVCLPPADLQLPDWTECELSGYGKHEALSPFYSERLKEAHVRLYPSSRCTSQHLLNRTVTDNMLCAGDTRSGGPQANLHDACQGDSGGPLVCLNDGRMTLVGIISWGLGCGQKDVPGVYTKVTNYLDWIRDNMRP

Chain of UniProt P00747 (P00747 20-810): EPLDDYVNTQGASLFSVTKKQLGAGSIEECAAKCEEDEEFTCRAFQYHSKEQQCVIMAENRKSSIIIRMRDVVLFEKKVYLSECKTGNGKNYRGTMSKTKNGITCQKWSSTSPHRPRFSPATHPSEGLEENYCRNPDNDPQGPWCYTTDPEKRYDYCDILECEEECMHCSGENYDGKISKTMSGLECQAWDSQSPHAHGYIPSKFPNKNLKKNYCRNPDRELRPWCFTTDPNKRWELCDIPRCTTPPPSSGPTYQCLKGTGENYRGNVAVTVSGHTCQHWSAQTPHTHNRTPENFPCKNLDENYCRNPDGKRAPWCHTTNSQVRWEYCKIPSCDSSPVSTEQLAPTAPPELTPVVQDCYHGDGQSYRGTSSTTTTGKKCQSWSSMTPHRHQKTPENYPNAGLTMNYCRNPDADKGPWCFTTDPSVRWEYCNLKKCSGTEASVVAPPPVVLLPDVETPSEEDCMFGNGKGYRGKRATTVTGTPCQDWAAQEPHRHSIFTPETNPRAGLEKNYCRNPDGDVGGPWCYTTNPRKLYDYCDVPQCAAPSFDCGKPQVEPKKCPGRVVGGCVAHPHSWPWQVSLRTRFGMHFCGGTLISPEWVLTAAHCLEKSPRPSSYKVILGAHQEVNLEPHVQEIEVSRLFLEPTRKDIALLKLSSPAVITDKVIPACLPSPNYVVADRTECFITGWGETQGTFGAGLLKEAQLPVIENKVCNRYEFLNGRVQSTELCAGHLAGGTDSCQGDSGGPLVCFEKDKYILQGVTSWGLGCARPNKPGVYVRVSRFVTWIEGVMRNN

For “Fibrin alpha chain 148-160 (from UniProt P02671)”, the Kd [1] is listed as 1 µM and the Kd (tPA (Homo sapiens)) is listed as 1 µM.
